Tests used:
[1] = test system: human brain endothelial cells (HBEC); experiment: Capillary-like tube (CLT) formation in Matrigel; type: cell-based; details: for effect on IGF-1-induced CLT formation: IGF-1 150 ng/ml; for effect on IGF-1-induced CLT formation / effect on VEGF165-induced CLT formation / effect on P1GF-induced CLT formation / effect on bFGF-induced CLT formation: protein 500 ng/ml; for effect on VEGF165-induced CLT formation: VEGF165 20 ng/ml; for effect on P1GF-induced CLT formation: P1GF 100 ng/ml; for effect on bFGF-induced CLT formation: bFGF 20 ng/ml
Excerpt: Angiogenesis is the formation of new blood vessels from pre-existing capillaries. There are different methods to evaluate angiogenesis in vitro and in vivo. The method used in our studies consists in seeding human brain microvascular endothelial cells on Matrigel, which is an active matrix material resembling the mammalian cellular basement membrane. Endothelial cells seeded on Matrigel behave as they do in vivo and when submitted to an angiogenic stimuli reorganize forming a complex network of capillary-like tubes. The total length of the capillary-like tube network as well as the number of branching point (nodes) formed by the endothelial cells directly correlate with the potency of the angiogenic stimuli.
In vitro angiogenesis was assessed by endothelial tube formation in growth factor reduced Matrigel™ (BD Bioscience, Bedford, Mass.). 24-well plates were coated with 300 μl of unpolymerized Matrigel™ (5-7 mg prot/ml) and allowed to polymerize for 90 min at 37° C. […] In a set of experiments, 500 ng/ml of either full length recombinant IGFBP-4, NBP-4 or CBP-4 were co-applied with growth factors (IGF-I, VEGF165, P1GF, or bFGF) or U87MG CM. […] CLT formation was analyzed after 24 h using an Olympus 1×50 microscope. Phase contrast images were captured with a digital video camera (Olympus U-CMT) and analyzed using Northern Eclipse v.5.0 software. Microphotographs were thresholded, converted to binary images and skeletonized. The total length of the CLT networks and the number of nodes (branching points) formed by HBEC in the center of the well (˜80% of the total surface) were quantified. […]

[2] = test system: PAI-1 in U87MG cells; experiment: Western blot of PAI-1; type: cell-based, human; details: 500 μM dB-cAMP, 6 days
Protocol: Cellular proteins were extracted using CHAPS buffer. Proteins were separated on a 10% SDS-PAGE gel and transferred onto nitrocellulose membranes. Membranes were blocked with 5% instant skim dry milk in PBST for 1 hour, then washed twice for 5 min with PBST. Blots were probed with 1:500 dilution of the PAI-1 primary antibody (Biogenesis Ltd, England, UK) in 2% skim milk in PBST supplemented with 10 mM sodium azide overnight at 4° C. After washing in PBST, membranes were incubated with HRP-labeled anti-mouse IgG secondary antibody (NEN Life Science Products, USA; 1:5000) for 1 h at room temperature. Bands were visualized using Western Blot Chemiluminescence Reagent Plus kit (NEN™ Life Science Products) and the Fluor-S™ multiImager (BioRad Lab., Hercules, Calif., USA).

[3] = test system: U87MG cells; experiment: ELISA of secreted proteins in U87MG conditioned media; type: cell-based, human; details: 500 μM dB-cAMP, 6 days
[4] = test system: plasminogen activator activity in U87MG cells; experiment: Plasminogen activator activity assay (S-2251); type: cell-based, human; details: 500 μM dB-cAMP, 3-day treatment
Protocol: Plasminogen activator activity (PAA) was determined by a spectrophotometric method using the chromogenic substrate S-2251 (D-Val-Leu-Lys p-nitroanilide dihydrochloride). […] Cells were washed 3 times and incubated for 2 h at 37° C. in phenol red-free D-MEM containing 2 c.u./ml plasminogen (DiaPharma Group, Ohio, USA) and 2 mM chromogenic substrate S-2251 (DiaPharma Group, Ohio, USA). The cleavage of 4-nitroaniline from the substrate by plasminogen activator was measured photometrically at 405 nm. Protein levels were measured with BioRad protein assay and PPA was expressed as a function of protein content in cell extracts.

[5] = test system: U87MG cells; experiment: Real-time PCR (Q-PCR) gene expression; type: cell-based, human; details: 500 μM dB-cAMP
Protocol: Total RNA was isolated from cells with TRIzol Reagent (Gibco BRL). The RNA (1 μg) was primed with oligo (dT)12-18 primers (0.5 μg/μg RNA, Gibco BRL) and reverse transcribed with 1-3 U of avian myeloblastosis virus reverse transcriptase (AMV RT, Promega) in a final volume of 20 μl. Completed RT reactions were diluted to 40 μl with water. Control reactions without the enzyme were run in parallel to monitor for potential genomic contamination. Primers were designed (Primer Express Software v2.0) for genes of interest (Table III) using Primer Express 2.0 program. Real-Time PCR was carried out with SYBR Green PCR Core Reagents Kit (Applied Biosystems, CA, USA) using the GeneAmp® 5700 Sequence Detection System (Perkin Elmer Applied Biosystems). A cDNA pool serially diluted from 1:10 to 1:1000 was used to generate standard curves. Reactions were performed in 20 μl reaction mixture containing 1×SYBR PCR buffer (Perkin-Elmer), 200 μM of each dATP, dCTP, dGTP and 400 μM dUTP, 0.025 U/μl AmpliTaq Gold, 0.01 U/μl AmpEraseUNG (uracil-N-glycosylase), 3 mM MgCl2, 120 nM of each primer and 2 μl of cDNA. […] Fluorescence was detected at the end of every 60° C. phase. […]
The PCR cycle number at which fluorescence reaches a threshold value of 10 times the standard deviation of baseline emission was used for quantitative measurements. […]

[6] = test system: U87MG cells; experiment: U87MG proliferation, CyQUANT Cell Proliferation Assay; type: cell-based, human; details: for decrease in proliferation: 500 μM dB-cAMP
Protocol: Proliferation rates of U87MG cells were determined using CyQUANT® Cell Proliferation Assay Kit (Molecular Probes, Inc., Eugene, Oreg.). […] Cells were fed every two days and harvested at days 2, 3, 5 and 6 by washing with HBSS, blotting microplates dry and storing at −80° C. until analysis. For cell density determination, plates were thawed at room temperature, 200 μl of CyQUANT GR dye/lysis buffer was added to each well and plates were incubated in the dark for 5 min. Sample fluorescence was measured (485 nm ex/530 nm em) in a cytofluorimeter plate reader (Bio-Tek FL600) and fluorescence values converted into cell numbers from cell reference standard curves.

[7] = test system: U87MG cells; experiment: Anchorage-independent growth in semi-solid agar (U87MG); type: cell-based, human; details: for reduction of U87MG colony formation / tumor growth in soft agar: 500 ng/ml protein
Protocol: D-MEM containing 10% FBS was warmed to 48° C. and diluted with Bacto-Agar to make a 0.6% (w/v) agar solution; 3 ml of agar solution was poured into 60 mm plates. […] Number and size of colonies formed were analyzed under the microscope (Olympus 1×50). Phase contrast images (6 fields/dish) were captured using a digital video camera (Olympus U-CMT) and analyzed with Northern Eclipse v.5.0 software. Each experiment was done in triplicate. Capillary-like tube (CLT) formation

[8] = test system: Hela cells; experiment: Anchorage-independent growth in semi-solid agar (Hela); type: cell-based, human; details: 500 ng/ml IGFBP-4, 4 weeks
Protocol: D-MEM containing 10% FBS was warmed to 48° C. and diluted with Bacto-Agar to make a 0.6% (w/v) agar solution; 3 ml of agar solution was poured into 60 mm plates. […] The solidified cell layer was covered with 500 μl D-MEM±treatment which was replaced every three days over a 20-25 day period. Number and size of colonies formed were analyzed under the microscope (Olympus 1×50). Phase contrast images (6 fields/dish) were captured using a digital video camera (Olympus U-CMT) and analyzed with Northern Eclipse v.5.0 software. Each experiment was done in triplicate. Capillary-like tube (CLT) formation

[9] = 500 ng/ml protein co-applied with U87MG CM

vascular endothelial growth factor-165 [VEGF]
HBEC preparations in which CLT formation was induced ([1]; 7 HBEC isolations, VEGF 20 ng/ml alone or U87MG CM): 3 out of 7

CCCC(=O)Nc1ncnc2c1ncn2[C@@H]1O[C@@H]2COP(=O)(O)O[C@H]2[C@H]1OC(=O)CCC [dB-cAMP, dibutyryl cyclic AMP]
PAI-1 protein expression [2]: up-regulation
VEGF-A levels in CM, increase vs untreated [3]: 20%
levels of P1GF, IGF-1 and bFGF in CM [3]: below the detection limit
VEGF-A level in CM of treated cells ([3]; untreated ~60): ~80 ng/mL
reduction in plasminogen activator activity (PAA) [4]: 30%
IGF-I and IGF-II mRNA change, Q-PCR [5]: no changes were detected
IGFBP-3 mRNA levels treated vs untreated, Q-PCR ([5]; day 6): not significantly different
decrease in proliferation ([6]; day 3): ~30%
decrease in proliferation ([6]; day 5): ~45%
decrease in proliferation ([6]; day 6): ~50%
effect on U87MG CM-induced CLT formation ([1]; 500 μM dB-cAMP added directly to U87MG CM): did not inhibit CLT formation
CLT formation by HBEC exposed to CM of dB-cAMP-treated U87MG ([1]; U87MG treated with 500 μM dB-cAMP, 6 days): blocks the angiogenic response
total number of colonies vs untreated ([7]; 500 μM dB-cAMP or 500 ng/ml IGFBP-4): not significantly (p<0.05) different
reduction of size of colonies (total covered area per field) ([7]; 500 μM dB-cAMP, 4 weeks): ~75%
size of colonies (total covered area per field) ([7]; 500 μM dB-cAMP, 4 weeks, untreated 1.1±0.3): 0.3±0.1 mm^2

B1: NBP-4: recombinant N-terminal IGFBP-4 protein fragment, aa 1 to 156 of the precursor, tagged (protein)
chain: MLPLCLVAALLLAAGPGPSLGDEAIHCPPCSEEKLARCRPPVGCEELVREPGCGCCATCALGLGMPCGVYTPRCGSGLRCYPPRGVEKPLHTLMHGQGVCMELAEIEAIQESLQPSDKDEGDHPNNSFSPCSAHDRRCLQKHFAKIRDRSTSGGKMDPWSHPQFEKTGHHHHHHHHGGQ
modifications: tagged; IGFBP4 N-terminal fragment construct
notes: recombinant N-terminal IGFBP-4 protein fragment, aa 1 to 156 of the precursor, tagged
effect on IGF-1-induced CLT formation [1]: abolish the angiogenic response
effect on VEGF165-induced CLT formation [1]: abolish the angiogenic response
reduction of U87MG colony formation / tumor growth in soft agar ([7]; 4 weeks): ~50%

B2: CBP-4: recombinant C-terminal IGFBP-4 protein fragment, aa 155 to 258 of the precursor, tagged (protein)
chain: MLLLLLLLGLRLQLSLGIASKVNGAPREDARPVPQGSCQSELHRALERLAASQSRTHEDLYIIPIPNCDRNGNFHPKQCHPALDGQRGKCWCVDRKTGVKLPGGLEPKGELDCHQLADSFREVDPWSHPQFEKTGHHHHHHHHGGQ
modifications: tagged; IGFBP4 C-terminal construct
notes: recombinant C-terminal IGFBP-4 protein fragment, aa 155 to 258 of the precursor, tagged
effect on U87MG CM-induced CLT formation [1, 9]: completely blocking
effect on IGF-1-induced CLT formation [1]: completely blocking
effect on P1GF-induced CLT formation [1]: completely blocking
effect on VEGF165-induced CLT formation [1]: completely blocking
effect on bFGF-induced CLT formation [1]: completely blocking
reduction of U87MG colony formation / tumor growth in soft agar ([7]; 4 weeks): ~55%

B3: insulin-like growth factor binding protein (IGFBP)-4 (protein)
chain: MLPLCLVAALLLAAGPGPSLGDEAIHCPPCSEEKLARCRPPVGCEELVREPGCGCCATCALGLGMPCGVYTPRCGSGLRCYPPRGVEKPLHTLMHGQGVCMELAEIEAIQESLQPSDKDEGDHPNNSFSPCSAHDRRCLQKHFAKIRDRSTSGGKMKVNGAPREDARPVPQGSCQSELHRALERLAASQSRTHEDLYIIPIPNCDRNGNFHPKQCHPALDGQRGKCWCVDRKTGVKLPGGLEPKGELDCHQLADSFREVDPWSHPQFEKTGHHHHHHHHGGQ
modifications: Streptag-II/His8 tag; IGFBP-4 construct
notes: full length recombinant IGFBP-4 with Streptag-II/(His)8 tag, aa 1 to 258
reduction of Hela colony formation / colony size [8]: ~45%
reduction of Hela colony formation / colony size ([8]; listed as IGFBP4): ~50%
effect on U87MG proliferation rates ([6]; 500 ng/ml): did not affect U87MG proliferation rates
effect on U87MG CM-induced CLT formation [1, 9]: reversed U87MG CM-stimulated CLT (FIG. 4A-C) to control levels
effect on IGF-1-induced CLT formation [1]: potently inhibited
effect on P1GF-induced CLT formation [1]: antagonized
effect on VEGF165-induced CLT formation [1]: antagonized
effect on bFGF-induced CLT formation [1]: antagonized
size of colonies (total area per field) ([7]; 500 ng/ml IGFBP-4, 4 weeks, untreated 1.5±0.6): 0.4±0.3 mm^2
reduction of U87MG colony formation / tumor growth in soft agar ([7]; 4 weeks): ~80%
